Assay: soluble on expression in E. coli; label from the status in PepcDB or PDB records

Sequence | soluble on expression in E. coli
MSLHLYTKHIYFIGGKGGVGKSTSAASFAWRCAERGEKTLLISTDPAHNLGDLFHTEIGAKHKKITDNLFATEIDPEQETRRYIQSVKDNLRGMVKSTMLDEVNRQIDAAAATPGADEAAMFNAISSIVLDEQGTYDKLVFDTAPTGHTIRLLTLPEMMGVWIDGMVKKRKKINENYSNLLNDGEPVDDPIYDTLQQRKERFAAVRNVLLDPKKTGFMFVLIPERLPILETEKAVKLLAKHDLHVETLIINKILPDVADGQFLEKRRQIEQRYLQQIHNTFRKQTLLRVPLFPEDIGSIEALYHFARYLEPTAEGHHHHHH | soluble
MAWASPDGHCTVEHSADSVHLWRFEHSVYDGFDTHWTATFTPEVPERLVAQFFTHLATTTPVERVFRDVPYLVQSLDAALITPVNRAAVNPHVHHAGAQLGRAVHRRLEHHHHHH | not soluble
MSLDDGTGLFTIGQLARRTGLSVRTIRYWSDEGALPPVTRSSGGYRLYDAGSVARLELIRTLRELGLGLDDVREVLAGETTVAEVAATHVTALDAQIRALKVTRAVLSTVARRGSTAEEMTLMNKLARLSAAERRRILEEFADEMFRGLDTADPVIRERMRNTAVDLPDEPTPEQVDAWVELVELLQDPEFRAQMRAAAEFNAADRGHDSPAGASLWFVRRLVQLAADARQRGEGHHHHHH | not soluble
MERYNTMSGKKTESSDNIVLYPGLVKRLIEKGMEALKEKDAKKALTMFEQAEQYDAEPSQILFGKALCYVELGKLDDAVLLTDQMLRNDIGNYYDILQIHLSLLVQLGRYDEVVEMLDVVLAEDRLPAKHAESFYQLLHFSRQMVEDSPTYIKEPLSEELDLKETYDDINERDSLEQWHFLQQMRKHNNPADIRTLLSFVESESNDPALRSYALHMLTMHKVEKRVRIRKFDQEAEVIPVELNADEQQRFGNAVVEQLEARLAVENPSLFKMAEQLWWQFLYALYPFTPKPEQKDLWAGAVHVAVHESNGLPFDEEEIAGMYNCRVQQMLEKGEEIHFVETETFQGISGHSFRMAGDPLEHHHHHH | soluble
MGTIKIVTDSSITIEPELIKALDITVVPLSVMIDSKLYSDNDLKEEGHFLSLMKASKSLPKTSQPPVGLFAETYENLVKKGVTDIVAIHLSPALSGTIEASRQGAEIAEAPVTVLDSGFTDQAMKFQVVEAAKMAKAGASLNEILAAVQAIKSKTELYIGVSTLENLVKGGRIGRVTGVLSSLLNVKVVMALKNDELKTLVKGRGNKTFTKWLDSYLAKNSHRPIAEIAISYAGEASLALTLKERIAAYYNHSISVLETGSIIQTHTGEGAFAVMVRYE | soluble
MGSDKIHHHHHHMVVASVVLWGKHVGAVLWNYDKGYATFEFEAGFLKSGLDVAPLTMPLANVSKGEIFQFAQLPKETFHGLPGLLSDALPDRFGNQLIDLWLASQGRDKASMSPVERLCYLGTRGMGALEFEPTVRNEKEPSKGLEIGALVELSKKALSMKASLDSHFSKEDAETFADIIKVGTSAGGARAKAVIAYNEQTGEVRSGQLHSPAGFEHWLIKFDGVTNEQLGDPKGYGRIEYAYYKMAIDADIIMMPSLLLEEGGRAHFMTKRFDRIVNNEKLHMQTLCGLCHFDYNNPEAYAYEQAFQAMRQLRLPYTDAEQLYIRMVFNVVARNQDDHTKNISFLMDKTGNWSLSPAYDVSYAYNPENKWIAKHQLAVNGKRENIMREDLLSVAKQMNIKKPKEIIEKITAVVSNWEGYAQEAGVPKNQITALGKTHLLKM | not soluble
SAEGEEEGGDVLISVGHANVLGYTLREFLQLLQHITIGTVLQIKVYRDFINIPEEWQEIYDLIPEAKFPVTSTPKKIELAKDESFTSSDDNENVDLDKRLQYYRYPWSTVHHPARRPISISRDWHGYKKKNHTISVGKDINCDVMIHRDDKKEVRAPSPYWIMVKQDNESSSSSTSSTSDAFWLEDCAQVEEGKAQLVSKVG | soluble
STQACPQPKTLDEFTIIQNLQPQYQFRDYFIATCKQGYQLIEGNQVLHSFTAVCQDDGTWHRAMPRCKIKDCGQPRNLPNGDFRYTTTMGVNTYKARIQYYCHEPYYKMQTRAGSRESEQGVYTCTAQGIWKNEQKGEKIPRCLPVCGKPVNPVEQRQR | soluble
GMTTQTATDFMEIVKGRRSIRNYDTNVKISKEEMTQILEEATLAPSSVNMQPWRFLVIDSEEGKATLAPLAKFNQVQVETSSAVIAVFGDMKAIDQLENIYDTAVEKGLMPQEVRDRQVPAIQGMYENVPASALKDSILIDSGLVSMQLMLVARAHGYDTNPIGGYEKDQIAEAFGMEKDRYVPVMLLSIGKAVDAGYPSVRLPINDIADWK | soluble
MGSDKIHHHHHHMKEIDELTIKEYGVDSRILMERAGISVVLAMEEELGNLSDYRFLVLCGGGNNGGDGFVVARNLLGVVKDVLVVFLGKKKTPDCEYNYGLYKKFGGKVVEQFEPSILNEFDVVVDAIFGTGLRGEITGEYAEIINLVNKSGKVVVSVDVPSGIDSNTGKVLRTAVKADLTVTFGVPKIGHILFPGRDLTGKLKVANIGHPVHLINSINRYVITREMVRSLLPERPRDSHKGTYGKVLIIAGSRLYSGAPVLSGMGSLKVGTGLVKLAVPFPQNLIATSRFPELISVPIDTEKGFFSLQNLQECLELSKDVDVVAIGPGLGNNEHVREFVNEFLKTLEKPAVIDADAINVLDTSVLKERKSPAVLTPHPGEMARLVKKTVGDVKYNYELAEEFAKENDCVLVLKSATTIVTDGEKTLFNITGNTGLSKGGSGDVLTGMIAGFIAQGLSPLEASTVSVYLHGFAAELFEQDERGLTASELLRLIPEAIRRLKE | soluble
MTIHHHGSAERKSIDDYSDIPRGEACKQLVEQLNRNLYSLNSNMQTTFKQMVHVETRIGHEISLLSSCLQENMSKCTMPYAPHEEQLVQLDSAKRNLKQLTRLLDARQIFDAEDSQSEKLKDRAIDDSLLPTLVAIGDNLKIIKELGAKPKFDAETYHKTKDRYLAWKGTEFAVKFDTPGGLDDIFDAFTTLNSVNDFYRLYQHHFDQSLNNLNKNSGIEDEKSLKEMGTVFVTKAAEHFRTHIGSLCKYCDENEAFTRLLDAWKNYIKNGTLEKLFEQSMENYNNYDLLSDLKSVVTKAYEEFETNTAGGPEDDEESIENIERIIVDGLMESAKKPLSEKLRSMVEPPPLNFRSVAEVMSSLENFAYLLREISHQLLEIYLEDEGREFMISILKPIFTDYTMRLCRMEDNSTPKVKLEEYLERIALAGQLSTIVEEYKDQTEIKNGLELKNAKKWMNERVKDAIRASHRFVTDKMPNHGSETYKESADMAKSALPTPQDFVVTATQNLLHLLRFWEEALANENTKVALIAHVMDINKESLETPDDDAIFAAILDRIASHVVKKLLQSINDVWLTDGKTATLSKGLVKEFLCDAEYLRDALVDLRAGTHDNLDSTINKLREQLKTMS | not soluble
MTNWLIAYQGEPGAYSEIAALRFGEPLPCESFDDVFSAVTEQKADYAVIPIENSLGGSIHQNYDLLLRRPVVILAETFVKVEHCLLGLPGASVETATKAMSHPQALVQCHNFFATHPQIRAEAAYDTAGSAKMVAESRDKSALAIASKRAGELYGLDILKENLADEEWNITRFFCIAHENN | not soluble
MSGEEKEKVKILHVANISTSATRDHIYNMFNYLGKIQDLKVYPSEGNITANTLLKTAFIKFDDERCVEVAQHLTNTVVIDCAIVCLPYPNPVIPDEESFFNSGGSTTAGQRQLPPHVTNKIQESDDGSALLITVDPTLEQLGLPAYPPLPADTDSAKVEEIRRTVYVGNLPKGVDGNEVLELFNMYFGEVMYARMASGPDALPCAYAYVEFSQQASVCNALQNDGFEFKERPLKIQHSRVAIIKPQAKTDEQALGEIEEAIRMGRNGDDRDRRRSRSPRRRRSPSPRRRRDSRDRDRDRDRDRRRSRDRRSRSRDRDRDRDRKRSRSRDRKRRSRSRDNKDRDRKRSRSRDRRRRSKSRDRKRERSRSRSKDRKRDKKRSRSRSPEKRRDKEDRKTEKKENENESSLREKLLEKKAARKDSSDDEWEEKPTPTNGEVKNEEIGNGDVVMASE | soluble
MAHHHHHHMVSDPSFCKKAPSSDLLGSNGRKVPPSFIAPPSSDVFLTSRRKTSFRNKSALTCLGKDVMSVSYGCGMRFRKAVRSGLSVFREAITLTDGGRHEGSHSRTSDSRPPQLSKRSMREIRRRIISPSYLEITSRTSTASSSTLRYIRLDFFKKTRRR | not soluble
DYYFDSYDHYGIHEEMLQDTVRTLSYRNAIIQNKDLFKDKIVLDVGCGTGILSMFAAKHGAKHVIGVDMSSIIEMAKELVELNGFSDKITLLRGKLEDVHLPFPKVDIIISEWMGYFLLYESMMDTVLYARDHYLVEGGLIFPDKCSIHLAGLEDSQYKDEKLNYWQDVYGFDYSPFVPLVLHEPIVDTVERNNVNTTSDKLIEFDLNTVKISDLAFKSNFKLTAKRQDMINGIVTWFDIVFPAPKGKRPVEFSTGPHAPYTHWKQTIFYFPDDLDAETGDTIEGELVCSPNEKNNRDLNIKISYKFESNGIDGNSRSRKNEGSYLMH | soluble
ALSRYLLTESPAVCVLSGERGVGTTTLLNRILNKVKNATPIYINCPYDGYSALLPELAKQLGLDEESSERDILQYLRNSDTCYLLAFDSAQRLVKPKVNGLADLMKLTNLLRRARKSHRVVLAIEKSCWRFIDRARGERLLFDLVTFMP | not soluble
MGSDKIHHHHHHMMIKDLKAHYQLLYAQSGDSPAAVQYPTHDSQVVRFSILSHGIDKTCNIIDLGCGLADMLPYLRQNGFTGKYLGCDFVPEFIELAKGKYGEDLNAKFMEFNILQDEIPTGYDYVLISGIFNNKIKNNQEFIELALKESMAKVNIGVVFNALSDYVQYQDETLFYISPLSLFDYCKRNITPYVTLKHDYLTKPGGFPYEFTMSLRHKEAS | not soluble
MASIKSYKLKNGQERWEYFVSNGRSNGTGRQQKIHKRGFRSHKEALKAAKIIEGQIASEEFVKENPQKMTISKFMNIWINEYKNNVKEGSRIVYRDAIRMYIDPYIGNYQLNKYKPADHQKFINSLFTNKELGKSKNGLSYNTVKIVNAALSNAFKKAQKLGYIKSNPTYFVEFPLDKVKEKTNKEKKLEFYTLEQENLFLDTARNFDDFMWYVFFLIIFDLGLRKGEVMALRWFNFDFRDNILTFDKQRLYRKEQPGQVILDDVKTDAGKRSLKMTNRVRNSVLELYSINYDLTSNVLPMTNSNQDFLFINHRGKNVGLPIRQRSVDTAWHRIIQKANLPKIRIHDGRHTNAARLRQAGVPLEDIKDMLGHKNVKTTEIYAHVSPEVKERAVNKLELYQMQHKKSGN | not soluble
MRGLDYRWIEALDSVVSKGSFERAAEQLFISQSAVSQRIKQLEKYLAQPVLIREQPPRPTLVGKKLLGLYRRVCLIEQELVPELTNQEHVRPVSMSIATNADSLATWLLPALDKVMKSRQVELNLVIYGESRTLDKLKNGEVVGAISLEPQPITGCSAEYLGQMEYLCVASPEFYQKYFAKGVTPRSLIKAPAVSYDQYDELHNKFLWDYFAVPRDKVINHTVGSSEAFVRLALSGAAYCLIPRLQIISELESGALINMTPDFMLSYPIFWHHWQLETGVLLEISEAITAYAKSVLPQ | not soluble
MPSTRCAHQMSTKKKAERVDNMIAFLKSAVQAQKEKGAQAEQAPGNAMMTSKLLEIWSVPQSTITEMRLLLTLGADPTPLFKDDFGEKTLADRIDNGSVCEECAEMYERTPIQINRSKKVDGVMALCLDGGGMRGLVSVVCLLYASRRLLGDETLPNLFDWFIGTSTGSMLALSMVNKISISECFFQYWDMKSQIFLRGSTVKRLLGDQVAVQTKNIDKVLGDCFPTQTLQECPTRLTIPALDISTAPARLHVFRNYSFTKPFGAPLNEDQDVLFREAARASSAAPTYFEPFIYGNKVLVDGSFVANYPLNVLFKEYDSFSKHQQPIHLAGVLSIGTGEPALAERKYKSGKSIRAKAMNIGHLSTLILEQVVGQDLTAVEMAQDRCHAHNIPFNRLSPKGISVRIDQIDDSKLMDMIWTTLIYLTENVHEIDQLGEMIYKLKSDPTERKRRSNTVL | not soluble

— the DeepSol protein solubility set
